{"source": "patent US20240238459A1", "about": "“Granzyme-Activatable Membrane-Interacting Peptides and Methods of Use” (priority 2021, published 2024)", "key": {"granzyme B [1]": {"target": "T1, granzyme B (Homo sapiens, UniProt P10144)", "T1 sequence (P10144 21-247)": "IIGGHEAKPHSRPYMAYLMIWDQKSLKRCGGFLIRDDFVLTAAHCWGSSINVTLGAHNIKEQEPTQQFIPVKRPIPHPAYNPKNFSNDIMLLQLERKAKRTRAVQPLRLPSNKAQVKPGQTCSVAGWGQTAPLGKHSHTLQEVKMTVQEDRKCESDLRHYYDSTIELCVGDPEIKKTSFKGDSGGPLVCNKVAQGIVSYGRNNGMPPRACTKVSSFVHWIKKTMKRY", "assay": "Protease specificity of substrate sequence (FIG. 1F)", "assay_type": "biochemical", "set-up": "purchased", "conditions": "vs thrombin, caspase 3, caspase 8, granzyme K, MMP9, C1S; enzymes 5 nM, substrate 60 μM, 37° C., PBS, 1 mM DTT, pH 7.4", "method": "The substrate sequence FVQWFSKFLGK (SEQ ID NO:3) was assessed for specificity for granzyme B compared to thrombin, caspase 3, caspase 8, granzyme K, MMP9, and C1S at 5 nM concentrations with substrate at 60 μM, 37° C., and buffer of PBS, 1 mM DTT, and pH 7.4."}, "granzyme B [2]": {"target": "T1, granzyme B", "assay": "In vitro kinetics of quenched fluorogenic peptide proteolysis by GZMB", "assay_type": "biochemical", "conditions": "Michaelis-Menten kinetics (FIG. 1D)"}, "human erythrocytes": {"system": "human erythrocytes", "assay": "Toxicity assay measuring hemolysis of human erythrocytes", "conditions": "in vitro, 1 hr at 37° C., hemoglobin release OD 540 nm", "procedure": "Blood from healthy anonymous donors was harvested from Trima Leukoreduction chambers (Vitalant, San Francisco CA). Erythrocytes were isolated from the anonymous blood samples. Full-length GRIP B and activated GRIP B were measured for their hemolytic activity on healthy human erythrocytes in triplicate. Aliquots of human erythrocytes were suspended in PBS (pH 7.4) and incubated with serial dilutions of both peptides which were initially solubilized in DMSO. DMSO and 1% Triton X-100 were incubated in parallel as negative and positive controls, respectively. Incubation was for 1 hr at 37° C. After incubation, the samples were centrifuged for 5 min at 2,000×g upon which the supernatant was collected. Supernatant was measured for the release of hemoglobin by the erythrocytes using a BioTek H4 multimode plate reader, monitoring the optical density of the supernatant at a wavelength of 540 nm."}}, "note": "Ends that are not written are not given here.", "data": [{"sequence": "FVQWFSKFLGK", "values": [{"measurement": "specificity for granzyme B compared to other proteases", "setting": "granzyme B [1]", "value": "highly specific for granzyme B"}]}, {"sequence": "IEPDVSQV (ends and bridges not checked) [NH2-K(MCA)IEPDVSQVK(DNP)-COOH]", "values": [{"measurement": "improved catalytic turnover compared to IEPD alone", "setting": "granzyme B [2]", "value": "approximately 2 fold"}]}, {"sequence": "FVQWFSKFLGKIEPDVSQVQDPNDQYEPF [GRIP B]", "values": [{"measurement": "toxicity toward human red blood cells", "setting": "human erythrocytes", "value": "not to display toxicity"}]}]}
